Residue numbers refer to the chain shown, from its start. Names may count otherwise.
T1: GIPR I221M (Homo sapiens, UniProt P48546, I221M)
T1 construct: host or cells: HEK293
T1 sequence (P48546 22-466 I221M): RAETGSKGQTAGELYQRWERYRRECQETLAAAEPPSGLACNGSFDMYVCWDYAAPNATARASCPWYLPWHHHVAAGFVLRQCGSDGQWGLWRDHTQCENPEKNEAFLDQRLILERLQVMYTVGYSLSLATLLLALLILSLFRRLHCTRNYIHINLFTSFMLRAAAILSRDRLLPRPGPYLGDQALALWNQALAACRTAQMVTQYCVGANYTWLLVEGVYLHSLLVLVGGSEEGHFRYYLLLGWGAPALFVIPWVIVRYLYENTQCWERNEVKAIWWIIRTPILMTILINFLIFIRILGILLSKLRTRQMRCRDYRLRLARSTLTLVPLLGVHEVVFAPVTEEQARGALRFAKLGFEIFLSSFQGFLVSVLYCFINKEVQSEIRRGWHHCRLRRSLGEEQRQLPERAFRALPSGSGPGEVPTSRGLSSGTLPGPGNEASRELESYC

T2: GIPR W233* (Homo sapiens, UniProt P48546)
T2 construct: host or cells: HEK293
T2 sequence (P48546 22-232 limits assumed): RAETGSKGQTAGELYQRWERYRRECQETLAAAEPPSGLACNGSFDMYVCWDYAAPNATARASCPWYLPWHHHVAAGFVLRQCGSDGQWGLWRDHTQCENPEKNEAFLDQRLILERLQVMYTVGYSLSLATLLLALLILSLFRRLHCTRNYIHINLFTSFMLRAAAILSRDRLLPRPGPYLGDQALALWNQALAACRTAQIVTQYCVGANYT

T3: GIPR A207V (Homo sapiens, UniProt P48546, A207V)
T3 construct: host or cells: HEK293
T3 sequence (P48546 22-466 A207V): T1 sequence (P48546 22-466 I221M) with A186V, M200I

T4: GIPR R190Q (Homo sapiens, UniProt P48546, R190Q)
T4 construct: host or cells: HEK293
T4 sequence (P48546 22-466 R190Q): T1 sequence (P48546 22-466 I221M) with R169Q, M200I

T5: GIPR P195R (Homo sapiens, UniProt P48546, P195R)
T5 construct: host or cells: HEK293
T5 sequence (P48546 22-466 P195R): T1 sequence (P48546 22-466 I221M) with P174R, M200I

T6: GIPR E288G (Homo sapiens, UniProt P48546, E288G)
T6 construct: host or cells: HEK293
T6 sequence (P48546 22-466 E288G): T1 sequence (P48546 22-466 I221M) with M200I, E267G

T7: GIPR L261H (Homo sapiens, UniProt P48546, L261H)
T7 construct: host or cells: HEK293
T7 sequence (P48546 22-466 L261H): T1 sequence (P48546 22-466 I221M) with M200I, L240H

B1: I221M (protein)
chain: T1 sequence (P48546 22-466 I221M)
B2: R190Q (protein)
chain: T1 sequence (P48546 22-466 I221M) with R169Q, M200I
B3: P195R (protein)
chain: T1 sequence (P48546 22-466 I221M) with P174R, M200I
B4: L261H (protein)
chain: T1 sequence (P48546 22-466 I221M) with M200I, L240H
B5: E288G (protein)
chain: T1 sequence (P48546 22-466 I221M) with M200I, E267G
B6: A207V (protein)
chain: T1 sequence (P48546 22-466 I221M) with A186V, M200I
B7: W233* (protein)
chain: T2 sequence (P48546 22-232 limits assumed)

Each molecule was assayed against T1, GIPR I221M (assay: cAMP accumulation). Settings: not given.
Assay type: cell-based
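For Beta, Barr in this document: BRET readout of β-arrestin 2 recruitment in transiently transfected HEK293 cells expressing WT GIPR or a GIPR variant plus GPCR kinase 2, Rluc8 donor and citrine acceptor.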
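For In vitro groups (β-arrestin) in this document: BRET readout of β-arrestin 2 recruitment in transiently transfected HEK293 cells expressing WT GIPR or a GIPR variant plus GPCR kinase 2, Rluc8 donor and citrine acceptor.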

Molecule | Efficacy at 100pmol (cAMP)
B1 | 0.8221

Each molecule was assayed on GIPR variants (groups) (assay: β-arrestin 2 recruitment (BRET)). Settings: arr part of the in vitro group.

Molecule | In vitro groups (β-arrestin)
B2 | LoF_arr
B3 | WT-like_arr
B4 | LoF_arr
B5 | LoF_arr
B1 | LoF_arr
B6 | WT-like_arr
B7 | LoF_arr

Same assay, conditions: in vitro β-arrestin recruitment per GIPR variant

Molecule | Beta, Barr
B2 | 0.1131
B3 | 0.8561
B4 | 0
B5 | 0.09099
B1 | 0.1962
B6 | 0.8334

These molecules were tested against T2, GIPR W233* (assay: cAMP accumulation). Settings: not given.
Assay type: cell-based

Molecule | Efficacy at 100pmol (cAMP)
B7 | 0.06458

What follows are molecules tested against T3, GIPR A207V (assay: cAMP accumulation). Settings: not given.
Assay type: cell-based

Molecule | Efficacy at 100pmol (cAMP)
B6 | 0.1592

These molecules were tested against T4, GIPR R190Q (assay: cAMP accumulation). Settings: not given.
Assay type: cell-based

Molecule | Efficacy at 100pmol (cAMP)
B2 | 0.008847

The molecules below were run against T5, GIPR P195R (assay: cAMP accumulation). Settings: not given.
Assay type: cell-based

Molecule | Efficacy at 100pmol (cAMP)
B3 | 0.117

These molecules were tested against T6, GIPR E288G (assay: cAMP accumulation). Settings: not given.
Assay type: cell-based

Molecule | Efficacy at 100pmol (cAMP)
B5 | 0.04101

These molecules were tested on GIPR variants (groups) (assay: cAMP accumulation). Settings: cAMP part of the in vitro group.
Assay type: cell-based, human

Molecule | In vitro groups (cAMP)
B2 | LoF_camp
B3 | LoF_camp
B4 | LoF_camp
B5 | LoF_camp
B1 | WT-like_camp
B6 | LoF_camp
B7 | LoF_camp

Same assay, conditions: cAMP production compared with WT

Molecule | percentage_camp
B2 | <50% cAMP
B3 | <50% cAMP
B4 | <50% cAMP
B5 | <50% cAMP
B1 | >50% cAMP
B6 | <50% cAMP
B7 | <50% cAMP

Same assay, conditions: in vitro cAMP production per GIPR variant

Molecule | Beta, cAMP
B2 | 0.008847
B3 | 0.117
B4 | 0.4533
B5 | 0.04101
B1 | 0.8221
B6 | 0.1592

The molecules below were run against T7, GIPR L261H (assay: cAMP accumulation). Settings: not given.
Assay type: cell-based

Molecule | Efficacy at 100pmol (cAMP)
B4 | 0.4533

Source: PMC11272584 (Nature Metabolism, 2024)
